Assay results taken from PMC5500849, “Cobamide-mediated enzymatic reductive dehalogenation via long-range electron transfer” (Nature Communications, 2017).

Assays:
[1] = substrate: Oc1ccc(Br)cc1Br; assay: purified protein; conditions: reduced methyl viologen 0.5 mM / Ti(III) citrate 1.4 mM, 100 mM Tris-HCl pH 7.5, 22 °C, no NH4+, kcat at Table 1, kcat includes further reduction to phenol
[2] = substrate: Oc1ccc(Br)cc1; assay: purified protein; conditions: reduced methyl viologen 0.5 mM / Ti(III) citrate 1.4 mM, 100 mM Tris-HCl pH 7.5, 22 °C, no NH4+, kcat at Table 1

B1: PceA (PceA–Strep) (Sulfurospirillum multivorans) (protein)
chain: AEKEKNAAEIRQQFAMTAGSPIIVNDKLERYAEVRTAFTHPTSFFKPNYKGEVKPWFLSAYDEKVRQIENGENGPKMKAKNVGEARAGRALEAAGWTLDINYGNIYPNRFFMLWSGETMTNTQLWAPVGLDRRPPDTTDPVELTNYVKFAARMAGADLVGVARLNRNWVYSEAVTIPADVPYEQSLHKEIEKPIVFKDVPLPIETDDELIIPNTCENVIVAGIAMNREMMQTAPNSMACATTAFCYSRMCMFDMWLCQFIRYMGYYAIPSCNGVGQSVAFAVEAGLGQASRMGACITPEFGPNVRLTKVFTNMPLVPDKPIDFGVTEFCETCKKCARECPSKAITEGPRTFEGRSIHNQSGKLQWQNDYNKCLGYWPESGGYCGVCVAVCPFTKGNIWIHDGVEWLIDNTRFLDPLMLGMDDALGYGAKRNITEVWDGKINTYGLDADHFRDTVSFRKDRVKKS
**Q.** How did the Km [1] turn out when B1 was run?
**A.** The Km was 95 µM.

**Q.** What about the kcat [1] of the same protein?
**A.** The kcat was 252 s⁻¹.

**Q.** And the Km [2]?
**A.** The Km was 99 µM.

**Q.** What about the kcat [2] of the same protein?
**A.** The kcat was 809 s⁻¹.
